Reference: article PMC13345634, “Dynamic assembly of malate dehydrogenase–citrate synthase multienzyme complex in the mitochondria” (eLife, 2026)

T1: recombinant CIT1 (without the mitochondrial targeting signal, C-terminal 6x His tag) (S. cerevisiae, UniProt P00890 38-479)
T1 construct: By the primers and the NdeI/XhoI sites of pET21b the chain should begin with an added Met and carry LE before the His6; also called recombinant yeast CIT1; pET-cit1; source: E. coli BL21 (DE3), pET21b, purified (Ni-NTA His SpinTrap columns)
T1 sequence (looked up): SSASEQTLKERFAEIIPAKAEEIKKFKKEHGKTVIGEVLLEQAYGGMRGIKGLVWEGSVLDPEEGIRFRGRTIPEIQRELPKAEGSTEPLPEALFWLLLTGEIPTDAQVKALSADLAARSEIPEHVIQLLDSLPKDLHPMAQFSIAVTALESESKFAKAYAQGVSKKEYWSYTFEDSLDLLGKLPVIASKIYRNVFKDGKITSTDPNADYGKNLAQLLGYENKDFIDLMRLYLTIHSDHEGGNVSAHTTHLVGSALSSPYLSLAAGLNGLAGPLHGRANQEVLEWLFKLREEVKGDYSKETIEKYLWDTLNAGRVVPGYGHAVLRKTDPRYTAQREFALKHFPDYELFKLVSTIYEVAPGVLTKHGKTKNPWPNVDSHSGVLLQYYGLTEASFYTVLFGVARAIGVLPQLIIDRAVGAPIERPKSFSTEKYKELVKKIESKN

T2: recombinant MDH1 (without the mitochondrial targeting signal, C-terminal 6x His tag), fluorescently labeled (S. cerevisiae, UniProt P17505 18-334, fluorescent label (Protein Labeling Kit RED-NHS 2nd Generation))
T2 chain: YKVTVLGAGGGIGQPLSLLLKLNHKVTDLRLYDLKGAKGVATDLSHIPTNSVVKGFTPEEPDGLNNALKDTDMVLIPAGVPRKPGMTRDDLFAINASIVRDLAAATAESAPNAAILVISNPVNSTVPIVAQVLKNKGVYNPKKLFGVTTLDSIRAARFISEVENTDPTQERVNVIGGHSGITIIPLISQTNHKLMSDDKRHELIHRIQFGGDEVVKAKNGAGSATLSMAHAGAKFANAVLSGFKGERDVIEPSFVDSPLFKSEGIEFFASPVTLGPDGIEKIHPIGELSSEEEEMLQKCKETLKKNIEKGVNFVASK

B1: recombinant MDH1 (without the mitochondrial targeting signal, C-terminal 6x His tag), fluorescently labeled (enzyme, S. cerevisiae, UniProt P17505 18-334, looked up)
chain: T2 chain
modifications: fluorescent label (Protein Labeling Kit RED-NHS 2nd Generation)
notes: By the primers and the NdeI/XhoI sites of pET21b the chain should begin with an added Met and carry LE before the His6; also called recombinant yeast MDH1; labeled MDH1; source: E. coli BL21 (DE3), pET21b, purified (Ni-NTA His SpinTrap columns)
B2: recombinant CIT1 (without the mitochondrial targeting signal, C-terminal 6x His tag) (enzyme)
chain: T1 sequence (looked up)

Columns and labels:
[1] = biological target: T1, recombinant CIT1 (without the …); assay: MST; fluorescently labeled MDH1 as the target, CIT1 as the ligand (two-fold serial dilution of 80 µM, 16 concentrations); Monolith NT.115, room temperature; 50 mM Tris, 150 mM NaCl, 10 mM MgCl2, 5 mM DTT, 0.05% Tween-20; pH 6.0; settings: both partners purified
[2] = biological target: T1, recombinant CIT1 (without the …); assay: MST; fluorescently labeled MDH1 as the target, CIT1 as the ligand (two-fold serial dilution of 80 µM, 16 concentrations); Monolith NT.115, room temperature; 50 mM Tris, 150 mM NaCl, 10 mM MgCl2, 5 mM DTT, 0.05% Tween-20; pH 6.4; settings: both partners purified
[3] = biological target: T1, recombinant CIT1 (without the …); assay: MST; fluorescently labeled MDH1 as the target, CIT1 as the ligand (two-fold serial dilution of 80 µM, 16 concentrations); Monolith NT.115, room temperature; 50 mM Tris, 150 mM NaCl, 10 mM MgCl2, 5 mM DTT, 0.05% Tween-20; pH 7.2; settings: both partners purified
[4] = biological target: T2, recombinant MDH1 (without the …); assay: MST; pH 6.8
[5] = biological target: T2, recombinant MDH1 (without the …); assay: MST; 10 mM malate
[6] = biological target: T2, recombinant MDH1 (without the …); assay: MST; 10 mM fumarate
[7] = biological target: T2, recombinant MDH1 (without the …); assay: MST; control (no metabolite)

| Binder | Kd [1] | Kd [2] | Kd [3] | Kd [4] | Kd [5] | Kd [6] | Kd [7] |
| --- | --- | --- | --- | --- | --- | --- | --- |
| B1 | 33 nM | 223 nM | 3.48 µM |  |  |  |  |
| B2 |  |  |  | 2720 nM | 367 nM | 288 nM | 6.07 µM |
